The values below come from patent publication US20200317779A1.

The assay concerns the target CD3 on human T cells (H9 cells, ATCC HTB-176) (human). Nature of the assay: flow cytometry on H9 cells, PE anti-human IgG alone (no primary antibody), negative control.

Chain of CD3 on human T cells (H9 cells, ATCC HTB-176) (human) (P07766 23-207, chain 1 of 3): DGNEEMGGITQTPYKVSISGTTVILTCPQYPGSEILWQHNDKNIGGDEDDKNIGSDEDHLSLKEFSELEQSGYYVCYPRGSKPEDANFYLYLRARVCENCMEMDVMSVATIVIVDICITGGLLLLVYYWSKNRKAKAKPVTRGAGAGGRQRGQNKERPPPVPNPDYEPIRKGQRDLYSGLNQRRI
Chain of CD3 on human T cells (H9 cells, ATCC HTB-176) (human) (P04234 22-171, chain 2 of 3, further chain): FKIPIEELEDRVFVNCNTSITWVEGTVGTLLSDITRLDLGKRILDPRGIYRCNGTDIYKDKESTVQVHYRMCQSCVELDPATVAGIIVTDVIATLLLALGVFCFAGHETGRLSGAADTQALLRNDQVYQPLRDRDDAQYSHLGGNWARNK
Chain of CD3 on human T cells (H9 cells, ATCC HTB-176) (human) (P09693 23-182, chain 3 of 3, further chain): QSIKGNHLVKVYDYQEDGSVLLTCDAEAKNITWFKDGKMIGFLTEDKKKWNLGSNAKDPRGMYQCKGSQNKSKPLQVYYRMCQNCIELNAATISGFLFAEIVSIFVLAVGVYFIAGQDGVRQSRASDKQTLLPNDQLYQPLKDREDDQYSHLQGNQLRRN

Substance a-HuIgG PE (antibody) displayed a Mean : PE-A of 138.
